{"source": "the RNAGym collection of RNA variant scans (doi:10.1073/pnas.2313332121)", "parents": {"B1": {"name": "TPR t1 (parent)", "chain": "GACCAAUCUGCCCUCAGAGCUCGAGAACAUCUUCGGAUGCAGAGGAGGCAGGCUUCGGUGGCGCGAUAGCGCCAACGUCCUCAACCUCCAAUGCAUCCCACCACAUGAUGAUGCCUGAAGAGCCUUGGUUUUUUG"}}, "data": [{"variants_of": "B1", "experiment": "polymerase ribozyme fitness, log enrichment relative to wild type (log ratio); higher = more active; in vitro selection for triplet polymerase activity", "how_it_was_run": "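A heterodimeric triplet polymerase ribozyme had each of its subunits mutagenized by PCR into a library, which was transcribed. One round of in vitro selection, done in triplicate, annealed each library with a biotinylated primer, its partner subunit and triplets, then incubated it frozen at −7 °C before gel excision of extended constructs, streptavidin-bead capture and RT-PCR. Fitness is the logarithm of genotype enrichment relative to wild-type enrichment, based on Illumina sequencing of inputs and outputs and inverse-variance-weighted replicate averages. A base-2 logarithm is used, and genotypes were kept only with ≥10 input reads and ≥1 read per output.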", "values": [{"variant": "GACGAAUCUGCCCUCAGAGCUCGAGAACAUCUUCGGAUGCAGAGGAGGCAGGCUUCGGUGGCGCGAUAGCGCCAACAUCCUCAACUUCCAAUGCAUUCCACCACAUGAUGAUGCCUGAAGAGCCUUGGUUUUUUG", "polymerase ribozyme fitness (log ratio)": -3.31}, {"variant": "GACGAAUCUGCCCUCAGAGCUCGAGAACAUCUUCGGAUGCAGAGGAGGCAGGCUUCGGUGGCGCGAUAGCGCCAACGUCCUCAACCUCCAACGCAUCCCACCACAUGAUGAUGCCUGAAGAGCCUUGGUUUUUUG", "polymerase ribozyme fitness (log ratio)": -3.05}, {"variant": "GACUAAUCUGCCCUCAGAGCUCGAGAACAUCUUCGGGUGCAGAGGAGGCAGGCUUCGGUGGCGCGAUAGCGCCAACGUCCUCAACCUCCAAUGCAUCCCACCACAUGAUGAUGCCUGAAGAGCCUUGGUUUUUUG", "polymerase ribozyme fitness (log ratio)": -0.871}, {"variant": "GACGAAUCUGCCCUCAGAGCUCGAGAACAUCUUCGGAUGCAGAGGAGGCAGGCUUCGGAGGCGCGAUAGCUCCAACGUCCUAAACCUCCAAUGCAUCCCACCACAUGAUGAUGCCUGAAGAGCCUUGGUUUUUUG", "polymerase ribozyme fitness (log ratio)": -5.53}, {"variant": "GACGAAUCUGCCCUCAGAGCUCGAGAACAUCUUCGGAUGCAGAGGAGGCAGGCUUCGGUUGCGCGAUAGCGCCAACGUCCUCAACCUCCAAUGCAUCCCACCACAUGAUGAUGCCUGAAGAGCCUUGGUUUUUUG", "polymerase ribozyme fitness (log ratio)": -1.18}, {"variant": "GACGAAUCUGCCCUCAGAGCUCGAGAACAUCUUCGGAUGCAGAGGAGGCAGGCUUCGGUAGCGCGAUAGCGCCAACGUCCUCAACCUCCAAUGCAUCCCACCACAUGAUGAUGCCUGAAGAGCCUUGGUUUUUUG", "polymerase ribozyme fitness (log ratio)": -1.91}, {"variant": "GACUAAUCUGCCCUCAGAGCUCGAGAGCAUCUUCGGAUGCAGAGGAGGCAGGCUUCGGUGGAGCGAUAGCGCCAACGUCCUCAACCUCCAAUGCAUCCCACCACAUGAUGAUGCCUGAAGAGCCUUGGUUUUUUG", "polymerase ribozyme fitness (log ratio)": -4.35}, {"variant": "GACUAAUCUGCCCUCAGAGCUCGAGAUCAUCUUCGGAUGCAGAGGAGGCAGGCUUCGGUGGCGCGAUAGCGCCAACGUCCUCAACCUCCAAUGCAUCCCACCACAUGAUGAUGCCUGAAGAGCCUUGGUUUUUUG", "polymerase ribozyme fitness (log ratio)": -2.79}, {"variant": "GACUACUCUGCCUUCAGAGCUCGAGAACAUCUUCGGAUGCAGAGGAGUGAGGUUUCGGUGGCGCGAUAGCGCCAACGUCCUCAACCUCCAAUGCAUCCCACCACAUGAUGAUCCCUGAAGAGCCUUGGUUUUUUG", "polymerase ribozyme fitness (log ratio)": -3.03}, {"variant": "GACGAAUCUGCCCUCAGAGCUCGAGAACAUCUUCGGAUGCAGAGGAGGCAGGCUUCGGUGGCGCGAUAGCUCCAACGUCCUCAACCUCCAAUGCAUCCCACCACAUGAUGAUGCUUGAAGAGCCUUGGUUUUUUG", "polymerase ribozyme fitness (log ratio)": -3.28}, {"variant": "GACGAAUCUGCCCUCAGAGCUCGAGAACAUCUUCGGAUGCAGAGGAGGCAGGCUUCGGUGACGCGAUAGCGCCAACGACCUCGACCUCCAAUGCAUCCCACCACAUGAUGAUGCCUGAAGAGCUGUGGUUUUUUG", "polymerase ribozyme fitness (log ratio)": -1.07}, {"variant": "GACGAAUCGCCCCUCAGAGCUCGAGAACAUCUUCGGAUGCAGAGGAGGCAGGCUUCGGUGGCGCGAUAGCGCCAACGUCCUCAACCUCCAAUGCAUCCCACCACAUGAUGAUGCCUGAAGAGCCUUGGUUUUUUG", "polymerase ribozyme fitness (log ratio)": -0.357}, {"variant": "GACGAAUCUGCCCUCAGAGCUCGAGAACAUCUUCGGAUGCAGAGGAGGCAGACUUCGGUGGCGCGAUAGCGUCAACGUCCUCAACCUCCAUUGCAUCCCACCACAUGAUGAUGCCUGAUGAGCCUUGGUUUUUUG", "polymerase ribozyme fitness (log ratio)": -4.02}, {"variant": "GACGAAUCAGCCCUCAGAGCUCGAGAACAUCUUCGGAUGCAGAGGAGGCAGGCUUCGGUGGCGCGAUAGCGCCAACGUCCUCAACCUCAAAUGCAUCCCACCACAUGAUGAUGCAUCAAGAGCCUUGGUUUUUUG", "polymerase ribozyme fitness (log ratio)": -4.91}, {"variant": "GACUUAUCUGCCCUCAGAGCUCGAGAACAUCUUCGGAUGCAGAGGAGGCAGGCUUCGGGGGCGUGAUAGCGCCAACGUCCUCAACCUCCAAUGCAUCCCACCACAUGAUGAUGCCUGAAGAGCCUUGGUUUUUUG", "polymerase ribozyme fitness (log ratio)": -3.75}, {"variant": "GACGAAUCUGCCCUCAGAGCUCGAGAACAUCUUCGGAUGCAGAGGAGGCAGGCUUCGGUGGCGCGAUAGCGCCAACGCCCUCAACCUCCAAUGCAUCCCACCACAUGAUGAGGCCUGAAGAGCCUUGGUUUUUUG", "polymerase ribozyme fitness (log ratio)": -1.83}, {"variant": "GACGAAUCUGCCCUCAGAGCUCGAGAACAUCUUCGGAUGCAGAGGAGGCAGGCUCCGGUGGCGCGAUAGCGUCAACGUCCUCAACCUCCAAUGGAUCCCACCACAUGAUGAUGCCUGAAGAGCCUUGGUUUUUUG", "polymerase ribozyme fitness (log ratio)": -3.35}, {"variant": "GACUAAUCUGCCCUCAGAGCUCGAGAACAUCUUCGGUUGCAGAGGAGUCAGGCUUCGGUGGCGCGAUAGCGCGAACGUCCUCAACCUCCAAUGCAUCACACCACAGGAUGAAGCCUGAAGAGCCUUGGUUUUUUG", "polymerase ribozyme fitness (log ratio)": -5.16}, {"variant": "GACGAAUCUGCCCUCAGAGCUCGAGAACAUCUUCGGAUGCAGAGGAGGCAGGCUUCGGUGGCGCGAUAGCGCCAACGUCCUCAACCUCCAAUGCAUCCCACCACAUGAUGAGGCCUGAAGAGCCUUGGUUUUUUG", "polymerase ribozyme fitness (log ratio)": -0.359}, {"variant": "GACGAAUCUGCCCUCAGAGCUCGAGAACAUCUUCGGAUGCAGAGGAGGCAGGCUUCGGUGGCACGAUAGCGCCAACGUCCUCAACCUCCAAUGCAUCCCACCACAUGAUGAUGCCUGAAGAGCCUUGGUUUUUUG", "polymerase ribozyme fitness (log ratio)": -2.73}, {"variant": "GACGAAUCCGCCCUCAGAGCUCGAGAACAUCUUCGGAUGCAGGGGAAGCAGGCUUCGGUGGCGCGAUAGCGCAAACGUCCUCAACCUCCAAUGCAUCCCACCACAUGAUGAUGCCUGAAGAGCCUUGGUUUUUUG", "polymerase ribozyme fitness (log ratio)": -2.93}]}]}
